Results: patent US20140087995A1 (published 2014)
Numbered stars: 1 amine (or outer) side, 2 acyl side, 3 side chain; on linkers, the order of the positions; unused ones are H or OH. Bridge positions count the residues as written; N and C are the ends. Side chains are listed from the residue outwards. Ends that are not written are not given here. * marks the point of attachment. C20 diacid = O=C(O)CCCCCCCCCCCCCCCCCCC(=O)*; C18 diacid = O=C(O)CCCCCCCCCCCCCCCCC(=O)*; C16 diacid = O=C(O)CCCCCCCCCCCCCCC(=O)*; γGlu = O=C(O)[C@H](CCC(=O)[*:2])N[*:1]; C14 diacid = O=C(O)CCCCCCCCCCCCC(=O)*

T1: rat calcitonin receptor (rat, UniProt P32214 25-516)
T1 construct: whole, on cells; Membranes of transiently transfected BHK tk'ts 13 cells (Assay VIII); also called rCTR
T1 sequence (looked up): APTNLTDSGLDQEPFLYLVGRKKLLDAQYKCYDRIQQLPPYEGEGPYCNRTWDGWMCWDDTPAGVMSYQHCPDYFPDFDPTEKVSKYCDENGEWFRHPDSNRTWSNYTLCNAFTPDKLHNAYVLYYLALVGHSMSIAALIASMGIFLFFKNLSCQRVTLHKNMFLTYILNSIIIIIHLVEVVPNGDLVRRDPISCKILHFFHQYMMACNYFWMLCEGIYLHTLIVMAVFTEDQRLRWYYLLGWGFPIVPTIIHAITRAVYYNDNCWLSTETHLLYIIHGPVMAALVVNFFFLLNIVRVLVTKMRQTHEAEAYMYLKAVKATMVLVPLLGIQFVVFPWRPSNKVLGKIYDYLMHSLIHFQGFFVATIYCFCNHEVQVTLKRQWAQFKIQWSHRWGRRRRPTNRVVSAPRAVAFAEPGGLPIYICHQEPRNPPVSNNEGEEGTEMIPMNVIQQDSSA

T2: rat amylin receptor (rat calcitonin receptor + rat RAMP 3) (rat, UniProt P32214 25-516; Q9JJ73 23-147)
T2 construct: whole, on cells; Membranes of transiently transfected BHK tk'ts 13 cells (Assay VI); also called rAmylin-R; rat amylin 3(a) receptor
T2 sequence (looked up) 1: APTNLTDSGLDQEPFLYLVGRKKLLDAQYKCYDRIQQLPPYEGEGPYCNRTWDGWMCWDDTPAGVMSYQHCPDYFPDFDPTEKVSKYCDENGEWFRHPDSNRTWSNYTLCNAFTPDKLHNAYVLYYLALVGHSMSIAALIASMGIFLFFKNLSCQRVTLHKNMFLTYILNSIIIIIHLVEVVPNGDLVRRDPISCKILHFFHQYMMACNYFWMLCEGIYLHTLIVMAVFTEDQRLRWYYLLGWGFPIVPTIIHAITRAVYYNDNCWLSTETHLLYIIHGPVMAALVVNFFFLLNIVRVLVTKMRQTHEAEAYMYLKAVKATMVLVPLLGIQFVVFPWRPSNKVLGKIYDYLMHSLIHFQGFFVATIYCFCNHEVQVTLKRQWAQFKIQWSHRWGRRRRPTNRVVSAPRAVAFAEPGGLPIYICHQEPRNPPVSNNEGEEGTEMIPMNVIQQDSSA
T2 sequence (looked up) 2: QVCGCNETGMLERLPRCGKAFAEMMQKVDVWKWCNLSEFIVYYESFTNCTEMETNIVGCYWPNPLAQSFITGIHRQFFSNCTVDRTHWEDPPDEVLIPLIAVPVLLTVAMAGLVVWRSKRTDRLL

T3: human calcitonin receptor (human, UniProt P30988 25-474)
T3 construct: whole, on cells; Membranes of a stably transfected BHK cell line (Assay VII); also called hCTR; hCT
T3 sequence (looked up): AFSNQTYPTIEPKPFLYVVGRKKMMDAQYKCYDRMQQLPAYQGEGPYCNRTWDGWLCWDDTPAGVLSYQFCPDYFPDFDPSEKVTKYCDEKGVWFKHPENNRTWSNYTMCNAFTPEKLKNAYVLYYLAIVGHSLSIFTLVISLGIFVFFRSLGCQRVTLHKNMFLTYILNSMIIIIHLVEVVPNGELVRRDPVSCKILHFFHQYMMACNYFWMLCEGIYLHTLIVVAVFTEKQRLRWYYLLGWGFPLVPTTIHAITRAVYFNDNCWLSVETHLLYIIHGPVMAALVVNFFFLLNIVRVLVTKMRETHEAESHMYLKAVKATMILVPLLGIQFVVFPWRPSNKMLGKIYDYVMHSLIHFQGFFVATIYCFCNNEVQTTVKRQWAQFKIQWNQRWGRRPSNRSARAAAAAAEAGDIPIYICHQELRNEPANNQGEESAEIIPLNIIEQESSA


What was measured:
rat calcitonin receptor [1] = target: T1, rat calcitonin receptor; assay: ratio IC50 rat calcitonin receptor / IC50 rat amylin receptor (reference)
rat calcitonin receptor [2] = target: T1, rat calcitonin receptor; assay: SPA competition with 125I-calcitonin, membranes of BHK cells with rat calcitonin receptor (Assay VIII)
[3] = target: T2, rat amylin receptor (rat calcitonin …); assay: SPA competition with 125I-rat amylin, membranes of BHK cells with rat calcitonin receptor + rat RAMP3 (Assay VI)
[4] = target: T3, human calcitonin receptor; assay: ratio IC50 human calcitonin receptor / IC50 human amylin receptor (reference)
Description: The resulting pellet was resuspended, homogenized and centrifuged (20.000 rpm, 15 min) in a buffer containing 20 mM Na-HEPES and 0.1 mM EDTA (pH 7.4, buffer 2). The resulting pellet was resuspended in buffer 2 and protein concentration was measured (BCA protein Assay, Pierce). The homogenate was kept cold during the whole procedure. The membranes were kept at −80° C. until use. The assay was performed in a 384 well Optiplate (PerkinElmer) in a total volume of 40 ul. Membranes were mixed with SPA beads. Final concentration of membranes 35 ng/μL final and SPA beads was 0.05 mg/well. Test-compounds were dissolved in DMSO and further diluted in assay buffer (50 mM Hepes, pH 7.4, 1 mM CaCl2, 5 mM MgCl₂, 0.1% OA and 0.02% Tween20). […] The final mixture was incubated with shaking at 400 rpm for 120 min at 25° C. prior to centrifugation (1500 rpm, 10 min). Samples were analyzed on TopCounter™ (Packard). The IC₅₀ was calculated using (one site binding competition analysis) GraphPad Prism5 as a measure of receptor affinity.
Membranes were prepared in the following way; the cells were rinsed with PBS and incubated with Versene for approximately 5 min before harvesting. The cells were flushed with PBS and the cell-suspension was centrifuged for 5 min at 1000 rpm. Cells were homogenized (Ultrathurrax) in a buffer containing 20 mM Na-HEPES and 10 mM EDTA (pH 7.4) and centrifuged at 20.000 rpm for 15 min. The resulting pellet was resuspended, homogenized and centrifuged (20.000 rpm, 15 min) in a buffer containing 20 mM Na-HEPES and 0.1 mM EDTA (pH 7.4, buffer 2). The resulting pellet was resuspended in buffer 2 and protein concentration was measured (BCA protein Assay, Pierce). The homogenate was kept cold during the whole procedure. The membranes were kept at −80° C. until use. Assay was performed in a 384 well Optiplate (PerkinElmer) in a total volume of 40 ul. Membranes were mixed with SPA beads.

Ratio rCT/rAmylin binding (rat calcitonin receptor [1])	IC50 (rat calcitonin receptor [2]) [nM]	IC50 [3] [nM]	Ratio hCT/hAmylin binding [4]	Binder
280	707	2.52	23.5	K([γGlu-C14 diacid])CNTATCATQRLANFLRHSSPNFGAIPSSTNVGHNTY-NH2 (disulfide 2-7; N-terminus assumed; SMILES CC[C@H](C)[C@H](NC(=O)[C@H](C)NC(=O)CNC(=O)[C@H](Cc1ccccc1)NC(=O)[C@H](CC(N)=O)NC(=O)[C@@H]1CCCN1C(=O)[C@H](CO)NC(=O)[C@H](CO)NC(=O)[C@H](Cc1c[nH]cn1)NC(=O)[C@H](CCCNC(=N)N)NC(=O)[C@H](CC(C)C)NC(=O)[C@H](Cc1ccccc1)NC(=O)[C@H](CC(N)=O)NC(=O)[C@H](C)NC(=O)[C@H](CC(C)C)NC(=O)[C@H](CCCNC(=N)N)NC(=O)[C@H](CCC(N)=O)NC(=O)[C@@H](NC(=O)[C@H](C)NC(=O)[C@@H]1CSSC[C@H](NC(=O)[C@@H](N)CCCCNC(=O)CC[C@H](NC(=O)CCCCCCCCCCCCC(=O)O)C(=O)O)C(=O)N[C@@H](CC(N)=O)C(=O)N[C@@H]([C@@H](C)O)C(=O)N[C@@H](C)C(=O)N[C@@H]([C@@H](C)O)C(=O)N1)[C@@H](C)O)C(=O)N1CCC[C@H]1C(=O)N[C@@H](CO)C(=O)N[C@@H](CO)C(=O)N[C@H](C(=O)N[C@@H](CC(N)=O)C(=O)N[C@H](C(=O)NCC(=O)N[C@@H](Cc1c[nH]cn1)C(=O)N[C@@H](CC(N)=O)C(=O)N[C@H](C(=O)N[C@@H](Cc1ccc(O)cc1)C(N)=O)[C@@H](C)O)C(C)C)[C@@H](C)O) [N^ε1-[(4S)-4-carboxy-4-(13-carboxytridecanoylamino)butanoyl]-[Arg17,Pro21,Pro27,His34]-h-amylin]
327	404	1.24	18.5	K([γGlu-C16 diacid])CNTATCATQRLANFLRHSSPNFGAIPSSTNVGHNTY-NH2 (disulfide 2-7; N-terminus assumed; SMILES CC[C@H](C)[C@H](NC(=O)[C@H](C)NC(=O)CNC(=O)[C@H](Cc1ccccc1)NC(=O)[C@H](CC(N)=O)NC(=O)[C@@H]1CCCN1C(=O)[C@H](CO)NC(=O)[C@H](CO)NC(=O)[C@H](Cc1c[nH]cn1)NC(=O)[C@H](CCCNC(=N)N)NC(=O)[C@H](CC(C)C)NC(=O)[C@H](Cc1ccccc1)NC(=O)[C@H](CC(N)=O)NC(=O)[C@H](C)NC(=O)[C@H](CC(C)C)NC(=O)[C@H](CCCNC(=N)N)NC(=O)[C@H](CCC(N)=O)NC(=O)[C@@H](NC(=O)[C@H](C)NC(=O)[C@@H]1CSSC[C@H](NC(=O)[C@@H](N)CCCCNC(=O)CC[C@H](NC(=O)CCCCCCCCCCCCCCC(=O)O)C(=O)O)C(=O)N[C@@H](CC(N)=O)C(=O)N[C@@H]([C@@H](C)O)C(=O)N[C@@H](C)C(=O)N[C@@H]([C@@H](C)O)C(=O)N1)[C@@H](C)O)C(=O)N1CCC[C@H]1C(=O)N[C@@H](CO)C(=O)N[C@@H](CO)C(=O)N[C@H](C(=O)N[C@@H](CC(N)=O)C(=O)N[C@H](C(=O)NCC(=O)N[C@@H](Cc1c[nH]cn1)C(=O)N[C@@H](CC(N)=O)C(=O)N[C@H](C(=O)N[C@@H](Cc1ccc(O)cc1)C(N)=O)[C@@H](C)O)C(C)C)[C@@H](C)O) [N^ε1-[(4S)-4-carboxy-4-(15-carboxypentadecanoylamino)butanoyl]-[Arg17,Pro21,Pro27,His34]-h-amylin]
40.3	47	1.17	59.4	K([γGlu-C18 diacid])CNTATCATQRLANFLRHSSPNFGAIPSSTNVGHNTY-NH2 (disulfide 2-7; N-terminus assumed; SMILES CC[C@H](C)[C@H](NC(=O)[C@H](C)NC(=O)CNC(=O)[C@H](Cc1ccccc1)NC(=O)[C@H](CC(N)=O)NC(=O)[C@@H]1CCCN1C(=O)[C@H](CO)NC(=O)[C@H](CO)NC(=O)[C@H](Cc1c[nH]cn1)NC(=O)[C@H](CCCNC(=N)N)NC(=O)[C@H](CC(C)C)NC(=O)[C@H](Cc1ccccc1)NC(=O)[C@H](CC(N)=O)NC(=O)[C@H](C)NC(=O)[C@H](CC(C)C)NC(=O)[C@H](CCCNC(=N)N)NC(=O)[C@H](CCC(N)=O)NC(=O)[C@@H](NC(=O)[C@H](C)NC(=O)[C@@H]1CSSC[C@H](NC(=O)[C@@H](N)CCCCNC(=O)CC[C@H](NC(=O)CCCCCCCCCCCCCCCCC(=O)O)C(=O)O)C(=O)N[C@@H](CC(N)=O)C(=O)N[C@@H]([C@@H](C)O)C(=O)N[C@@H](C)C(=O)N[C@@H]([C@@H](C)O)C(=O)N1)[C@@H](C)O)C(=O)N1CCC[C@H]1C(=O)N[C@@H](CO)C(=O)N[C@@H](CO)C(=O)N[C@H](C(=O)N[C@@H](CC(N)=O)C(=O)N[C@H](C(=O)NCC(=O)N[C@@H](Cc1c[nH]cn1)C(=O)N[C@@H](CC(N)=O)C(=O)N[C@H](C(=O)N[C@@H](Cc1ccc(O)cc1)C(N)=O)[C@@H](C)O)C(C)C)[C@@H](C)O) [N^ε1-[(4S)-4-carboxy-4-(17-carboxyheptadecanoylamino)butanoyl]-[Arg17,Pro21,Pro27,His34]-h-amylin]
83.2	131	1.58	101	K([γGlu-C20 diacid])CNTATCATQRLAAFLRHSSPNFGAIPSSTNVGHNTY-NH2 (disulfide 2-7; N-terminus assumed; SMILES CC[C@H](C)[C@H](NC(=O)[C@H](C)NC(=O)CNC(=O)[C@H](Cc1ccccc1)NC(=O)[C@H](CC(N)=O)NC(=O)[C@@H]1CCCN1C(=O)[C@H](CO)NC(=O)[C@H](CO)NC(=O)[C@H](Cc1c[nH]cn1)NC(=O)[C@H](CCCNC(=N)N)NC(=O)[C@H](CC(C)C)NC(=O)[C@H](Cc1ccccc1)NC(=O)[C@H](C)NC(=O)[C@H](C)NC(=O)[C@H](CC(C)C)NC(=O)[C@H](CCCNC(=N)N)NC(=O)[C@H](CCC(N)=O)NC(=O)[C@@H](NC(=O)[C@H](C)NC(=O)[C@@H]1CSSC[C@H](NC(=O)[C@@H](N)CCCCNC(=O)CC[C@H](NC(=O)CCCCCCCCCCCCCCCCCCC(=O)O)C(=O)O)C(=O)N[C@@H](CC(N)=O)C(=O)N[C@@H]([C@@H](C)O)C(=O)N[C@@H](C)C(=O)N[C@@H]([C@@H](C)O)C(=O)N1)[C@@H](C)O)C(=O)N1CCC[C@H]1C(=O)N[C@@H](CO)C(=O)N[C@@H](CO)C(=O)N[C@H](C(=O)N[C@@H](CC(N)=O)C(=O)N[C@H](C(=O)NCC(=O)N[C@@H](Cc1c[nH]cn1)C(=O)N[C@@H](CC(N)=O)C(=O)N[C@H](C(=O)N[C@@H](Cc1ccc(O)cc1)C(N)=O)[C@@H](C)O)C(C)C)[C@@H](C)O, also called compound 93)
